Reference: patent US20160040149A1, “Compositions Having Dicamba Decarboxylase Activity and Methods of Use” (priority 2013, published 2016)

Experiment: DNA shuffling libraries: 14CO2 capturing assay in 384-well format, fold activity of backbone (Megatable 2)
Conditions: relative to backbone SEQ ID NO: 509 (DDEC0810)

| Molecule | Fold Activity |
| --- | --- |
| 561 (protein, Dicamba decarboxylase variant) MAQGLVALEEHFAIPETLQDAAGFVPGDYWKELQHRLMDMQDTRLKEMDKHGIGTMVLSLAAPAVQAIPDRRQAIEIARRANDFLAEEVAKRPDRFLAFAALPMQDPDAATEELQRCVADLGFVGAMVNGFSQEGDGQTPLYYDLPQYRPFWGEVEKLDVPFYLHPRNPLPQDARIYDGHPWLLGPTWAFAQETAVHALRLMASGLFDEHPRLNIILGHMGEGLPYMMYRIDHRIAWVKAPPRYPAKRRFMDYFLENFHITTSGNFRTQTLIDAILEIGADRILFSTDWPFENIDHAADWFAATSIAEADRVKIGRTNARRLFKLDVR | 1.1 fold |
| 528 (protein, Dicamba decarboxylase variant) MAQGKVALEEHFAIPETLQDAAGFVPGDYWKELQHRLLDIQDTRLKEMDKHEIGTMVLSLAAPAVQAIPDRRKAIEIARRANDFLAEEVAKRPDRFLAFAALPLQDPDAATEELQRCVNDLGFVGAMVNGFSQEGDGQTPLYYDLPQYRPFWGEVEKLDVPFYLHPRNPLPQDSRIYDGHPWLLGPTWAFAQETAVHALRLMASGLFDEHPRLNIILGHMGEGLPYMMYRIDHRIAWVKAPPDYPAKRRFMDYFLENFHITTSGNFRTQTLIDAILEIGADRILFSTDWPFENIDHAADWFNATSIAEADRVKIGRTNARRLFKLDGR | 1.3 fold |
| 564 (protein, Dicamba decarboxylase variant) MAQGLVALEEHFAIPETLQDAAGFVPGDYWKELQHRLLDIQDTRLKEMDKHEIGTMVLSLAAPAVQAIPDRRKAIEIARRANDFLAEEVAKRPDRFLAFAALPLQDVDAATEELQRCVADLGFVGAMVNGFSQEGDGQTPLYYDLPQYRPFWGEVEKLDVPFYLHPRNPLPQDARIYDGHPWLLGPTWAFAQETAVHALRLMASGLFDEHPRLNIILGHMGEGLPYMMYRIDHRIAWVKAPPDYPAKRRFMDYFLENFHITTSGNFRTQTLIDAILEIGADRILFSTDWPFENIDHAADWFNATSIAEADRVKIGRTNARRLFKLDGR | 0.9 fold |
| 530 (protein, Dicamba decarboxylase variant) MAQGLVALEEHFAIPETLQDAAGFVPGDYWKELQHRLLDIQDTRLKEMDRHEIGTMVLSLAAPAVQAIPDRRQAIELARRANDFLAEEVAKRPDRFLAFAALPMQDVEAATEELQRCVNDLGFVGAMVNGFSQEGDGQTPLYYDLPQYRPFWGEVEKLDVPFYLHPRNPLPQDSRIYDGHPWLLGPTWAFAQETAVHALRLMASGLFDEHPRLNIILGHMGEGLPYMMYRIDHRIAWVKAPPDYPAKRRFMDYFLENFHITTSGNFRTQTLIDAILEIGADRILFSTDWPFENIDHAADWFNATSIAEADRVKIGRTNARRLFKLDGR | 1.1 fold |
| 562 (protein, Dicamba decarboxylase variant) MAQGKVALEEHFAIPETLNDAAGFVPGDYWKELQHRLLDIQDTRLKEMDKHEIGTMVLSLAAPAVQAIPDRRKAIELARRANDFLAEEVAKRPDRFLAFAALPLQDVDAATEELQRCVADLGFVGAMVNGFSQEGDGQTPLYYDLPQYRPFWGEVEKLDVPFYLHPRNPLPQDARIYDGHPWLLGPTWAFAQETAVHALRLMASGLFDEHPRLNIILGHMGEGLPYMMYRIDHRIAWVKAPPRYPAKRRFMDYFLENFHITTSGNFRTQTLIDAILEIGADRILFSTDWPFENIDHAADWFAATSIAEADRVKIGRTNARRLFKLDGR | 1.7 fold |
| 534 (protein, Dicamba decarboxylase variant) MAQGLVALEEHFAIPETLQDAAGFVPGDYWKELQHRLLDIQDTRLKEMDKHEIGTMILSLAAPAVQAIPDRRKAIEIARRANDFLAEEVAKRPDRFLAFAALPLQDVDAATEELQRCVNDLGFVGAMVNGFSQEGDGQTPLYYDLPQYRPFWGEVEKLDVPFYLHPRNPLPQDSRIYDGHPWLLGPTWAFAQETAVHALRLMASGLFDEHPRLNIILGHMGEGLPYMMYRIDHRIAWVKAPPDYPAKRRFMDYFLENFHITTSGNFRTQTLIDAILEIGADRILFSTDWPFENIDHAADWFNATSIAEADRVKIGRTNARRLFKLDGR | 1.1 fold |
| 563 (protein, Dicamba decarboxylase variant) MAQGKVALEEHFAIPETLQDAAGFVPGDYWKELQHRLLDIQDERLKEMDKHEIGTMILSLAAPAVQAIPDRRKAIEIARRANDFLAEEVAKRPDRFLAFAALPLQDVDAATEELQRCVNDLGFVGAMVNGFSQEGDGQTPLYYDLPQYRPFWGEVEKLDVPFYLHPRNPLPQDARIYDGHPWLLGPTWAFAQETAVHALRLMASGLFDEHPRLNIILGHLGEGLPYMMYRIDHRIAWVKAPPDYPAKRRFMDYFLENFHITTSGNFRTQTLIDAILEIGADRILFSTDWPFENIDHAADWFAATSIAEADRVKIGRTNARRLFKLDGR | 0.9 fold |
| 533 (protein, Dicamba decarboxylase variant) MAQGKVALEEHFAIPETLQDAAGFVPGCYWKELQHRLLDIQDTRLKEMDKHEIGTMILSLAAPAVQAIPDRRKAIEIARRANDFLAEEVAKRPDRFLAFAALPLQDVDAATEELQRCVADLGFVGAMVNGFSQEGDGQTPLYYDLPQYRPFWGEVEKLDVPFYLHPRNPLPQDARIYDGHPWLLGPTWAFAQETAVHALRLMASGLFDEHPRLNIILGHMGEGLPYMMYRIDHRIAWVKAPPDYPAKRRFMDYFLENFHITTSGNFRTQTLIDAILEIGADRILFSTDWPFENIDHAADWFNATSIAEADRVKIGRTNARRLFKLDGR | 0.9 fold |
| 532 (protein, Dicamba decarboxylase variant) MAQGKVALEEHFAIPETLQDAAGFVPGDYWKELQHRLLDIQDTRLKEMDKHEIGTMVLSLAAPAVQAIPDRRKAIELARRANDFLAEEVAKRPDRFLAFAALPLQDVDAATEELQRCVNDLGFVGAMVNGFSQEGDGQTPLYYDLPQYRPFWGEVEKLDVPFYLHPRNPLPQDARIYDGHPWLLGPTWAFAQETAVHALRLMASGLFDEHPRLNIILGHMGEGLPYMMYRIDHRIAWVKAPPDYPAKRRFMDYFLENFHITTSGNFRTQTLIDAILEIGADRILFSTDWPFENIDHAADWFNATSIAEADRVKIGRTNARRLFKLDGR | 1.3 fold |
| 536 (protein, Dicamba decarboxylase variant) MAQGKVALEEHFAIPETLQDAAGFVPGDYWKELQHRLLDIQDERLKEMDKHEIGTMVLSLAAPAVQAIPDRRKAIELAKRANDFLAEEVAKRPDRFLAFAALPLQDVDAATEELQRCVNDLGFVGAMVNGFSQEGDGQTPLYYDLPQYRPFWGEVEKLDVPFYLHPRNPLPQDSRIYDGHPWLLGPTWAFAQETAVHALRLMASGLFDEHPRLNIILGHMGEGLPYMMYRIDHRIAWVKAPPDYPAKRRFMDYFLENFHITTSGNFRTQTLIDAILEIGADRILFSTDWPFENIDHAADWFAATSIAEADRVKIGRTNARRLFKLDGR | 1.3 fold |
| 537 (protein, Dicamba decarboxylase variant) MAQGKVALEEHFAIPETLQDAAGFVPGDYWKELQHRLLDIQDTRLKEMDKHEIGTMVLSLAAPAVQAIPDRRKAIELARRANDFLAEEVAKRPDRFLAFAALPLQDVDAATEELQRCVNDLGFVGAMVNGFSQEGDGQTPLYYDLPQYRPFWGEVEKLDVPFYLHPRNPLPQDARIYDGHPWLLGPTWAFAQETAVHALRLMASGLFDEHPRLNIILGHMGEGLPYMMYRIDHRIAWVKAPPDYPAKRRFMDYFLENFWITTSGNFRTQTLIDAILEIGADRILFSTDWPFENIDHAADWFNATSIAEADRVKIGRTNARNLFKLDVR | 1.3 fold |
| 535 (protein, Dicamba decarboxylase variant) MAQGKVALEEHFAIPETLQDAAGFVPGDYWKELQHRLLDIQDTRLKEMDKHEIGTMVLSLAAPAVQAIPDRRKAIELARRANDFLAEEVAKRPDRFLAFAALPMQDPDAATEELQRCVADLGFVGAMVNGFSQEGDGQTPLYYDLPQYRPFWKEVEKLDVPFYLHPRNPLPQDARIYDGHPWLLGPTWAFAQETAVHALRLMASGLFDEHPRLNIILGHMGEGLPYMMYRIDHRIAWVKAPPDYPAKRRFMDYFLENFWITTSGNFRTQTLIDAILEIGADRILFSTDWPFENIDHAADWFNATSIAEADRVKIGRTNARRLFKLDGR | 1.1 fold |
| 531 (protein, Dicamba decarboxylase variant) MAQGLVALEEHFAIPETLQDAAGFVPGCYWKELQHRLLDIQDTRLKEMDKHEIGTMILSLAAPAVQAIPDRRKAIEIARRANDFLAEEVAKRPDRFLAFAALPLQDVDAATEELQRCVNDLGFVGAMVNGFSQEGDGQTPLYYDLPQYRPFWGEVEKLDVPFYLHPRNPLPQDSRIYDGHPWLLGPTWAFAQETAVHALRLMASGLFDEHPRLNIILGHMGEGLPYMMYRIDHRIAWVKAPPDYPAKRRFMDYFLENFHITTSGNFRTQTLIDAILEIGADRILFSTDWPFENIDHAADWFNATSIAEADRVKIGRTNARRLFKLDGS | 1.3 fold |
| 529 (protein, Dicamba decarboxylase variant) MAQGLVALEEHFAIPETLQDAAGFVPGDYWKELQHRLLDIQDTRLKEMDKHEIGTMILSLAAPAVQAIPDRRKAIEIARRANDFLAEEVAKRPDRFLAFAALPLQDVDAATEELQRCVADLGFVGAMVNGFSQEGDGQTPLYYDLPQYRPFWGEVEKLDVPFYLHPRNPLPQDSRIYDGHPWLLGPTWAFAQETAVHALRLMASGLFDEHPRLNIILGHMGEGLPYMMYRIDHRIAWVKAPPDYPAKRRFMDYFLENFWITTSGNFRTQTLIDAILEIGADRILFSTDWPFENIDHAADWFNATSIAEADRVKIGRTNARRLFKLDGR | 1.2 fold |
| 538 (protein, Dicamba decarboxylase variant) MAQGKVALEEHFAIPETLQDAAGFVPGDYWKELQHRLMDIQDTRLKEMDKHEIGTMVLSLAAPAVQAIPDRRKAIEIARRANDFLAEEVAKRPDRFLAFAALPMQDPEAATSELQRCVADLGFVGAMVNGFSQEGDGQTPLYYDLPQYRPFWGEVEKLDVPFYLHPRNPLPQDARIYDGHPWLLGPTWAFAQETAVHALRLMASGLFDEHPRLNIILGHMGEGLPYMMYRIDHRIAWVKAPPDYPAKRRFMDYFLENFHITTSGNFRTQTLIDAILEIGADRILFSTDWPFENIDHAADWFNATSIAEADRVKIGRTNARRLFKLDGR | 1.0 fold |
